{"source": "the supplement of paper PMC10567573", "parents": {"B1": {"name": "ANKRD9 (parent)", "chain": "VGAAGSARQELLGDRPRWQRLLGE"}}}
{"variants_of": "B1", "assay": "protein stability index of a GFP-peptide fusion (GPS, HEK-293T) (PSI 1-6); higher = more stable", "conditions": "c terminus: a fixed tail appended"}
{"variant": "VGAAGSARQELYGDRPRWQRLLGE", "note": "[L12Y]", "protein stability index": 3.21}
{"variant": "VGAAGSARQELKGDRPRWQRLLGE", "note": "[L12K]", "protein stability index": 3.95}
{"variant": "VGAAGSARQELAGDRPRWQRLLGE", "note": "[L12A]", "protein stability index": 3.64}
{"variant": "VGAAGSARQELIGDRPRWQRLLGE", "note": "[L12I]", "protein stability index": 4.09}
{"variant": "VGAAGSARQELQGDRPRWQRLLGE", "note": "[L12Q]", "protein stability index": 3.27}
{"variant": "VGAAGSARQELRGDRPRWQRLLGE", "note": "[L12R]", "protein stability index": 2.12}
{"variant": "VGAAGSARQELGGDRPRWQRLLGE", "note": "[L12G]", "protein stability index": 3.79}
{"variant": "VGAAGSARQELNGDRPRWQRLLGE", "note": "[L12N]", "protein stability index": 3.43}
{"variant": "VGAAGSARQELSGDRPRWQRLLGE", "note": "[L12S]", "protein stability index": 4.15}
{"variant": "VGAAGSARQELEGDRPRWQRLLGE", "note": "[L12E]", "protein stability index": 3.7}
{"variant": "VGAAGSARQELWGDRPRWQRLLGE", "note": "[L12W]", "protein stability index": 2.35}
{"variant": "VGAAGSARQELPGDRPRWQRLLGE", "note": "[L12P]", "protein stability index": 3.55}
{"variant": "VGAAGSARQELVGDRPRWQRLLGE", "note": "[L12V]", "protein stability index": 2.49}
{"variant": "VGAAGSARQELMGDRPRWQRLLGE", "note": "[L12M]", "protein stability index": 3.43}
{"variant": "VGAAGSARQELFGDRPRWQRLLGE", "note": "[L12F]", "protein stability index": 2.57}
{"variant": "VGAAGSARQELTGDRPRWQRLLGE", "note": "[L12T]", "protein stability index": 3}
{"variant": "VGAAGSARQELDGDRPRWQRLLGE", "note": "[L12D]", "protein stability index": 4.17}
{"variant": "VGAAGSARQELHGDRPRWQRLLGE", "note": "[L12H]", "protein stability index": 3.6}
{"variant": "VGAAGSARQNLLGDRPRWQRLLGE", "note": "[E10N]", "protein stability index": 3.22}
{"variant": "VGAAGSARQYLLGDRPRWQRLLGE", "note": "[E10Y]", "protein stability index": 3.03}
{"variant": "VGAAGSARQHLLGDRPRWQRLLGE", "note": "[E10H]", "protein stability index": 2.6}
{"variant": "VGAAGSARQGLLGDRPRWQRLLGE", "note": "[E10G]", "protein stability index": 2.55}
{"variant": "VGAAGSARQWLLGDRPRWQRLLGE", "note": "[E10W]", "protein stability index": 1.76}
{"variant": "VGAAGSARQPLLGDRPRWQRLLGE", "note": "[E10P]", "protein stability index": 1.62}
{"variant": "VGAAGSARQVLLGDRPRWQRLLGE", "note": "[E10V]", "protein stability index": 3.25}
{"variant": "VGAAGSARQRLLGDRPRWQRLLGE", "note": "[E10R]", "protein stability index": 2.71}
{"variant": "VGAAGSARQMLLGDRPRWQRLLGE", "note": "[E10M]", "protein stability index": 2.63}
{"variant": "VGAAGSARQQLLGDRPRWQRLLGE", "note": "[E10Q]", "protein stability index": 3}
{"variant": "VGAAGSARQALLGDRPRWQRLLGE", "note": "[E10A]", "protein stability index": 2.85}
{"variant": "VGAAGSARQFLLGDRPRWQRLLGE", "note": "[E10F]", "protein stability index": 3.33}
{"variant": "VGAAGSARQILLGDRPRWQRLLGE", "note": "[E10I]", "protein stability index": 2.4}
{"variant": "VGAAGSARQDLLGDRPRWQRLLGE", "note": "[E10D]", "protein stability index": 3.37}
{"variant": "VGAAGSARQSLLGDRPRWQRLLGE", "note": "[E10S]", "protein stability index": 3.54}
{"variant": "VGAAGSARQLLLGDRPRWQRLLGE", "note": "[E10L]", "protein stability index": 2.13}
{"variant": "VGAAGSARQTLLGDRPRWQRLLGE", "note": "[E10T]", "protein stability index": 2.39}
{"variant": "VGAAGSARQCLLGDRPRWQRLLGE", "note": "[E10C]", "protein stability index": 2.75}
{"variant": "VGAAGSARRELLGDRPRWQRLLGE", "note": "[Q9R]", "protein stability index": 3.04}
{"variant": "VGAAGSARCELLGDRPRWQRLLGE", "note": "[Q9C]", "protein stability index": 2.56}
{"variant": "VGAAGSARFELLGDRPRWQRLLGE", "note": "[Q9F]", "protein stability index": 2.81}
{"variant": "VGAAGSARLELLGDRPRWQRLLGE", "note": "[Q9L]", "protein stability index": 2.81}
{"variant": "VGAAGSARAELLGDRPRWQRLLGE", "note": "[Q9A]", "protein stability index": 3.37}
{"variant": "VGAAGSARIELLGDRPRWQRLLGE", "note": "[Q9I]", "protein stability index": 2.96}
{"variant": "VGAAGSARTELLGDRPRWQRLLGE", "note": "[Q9T]", "protein stability index": 3.13}
{"variant": "VGAAGSARYELLGDRPRWQRLLGE", "note": "[Q9Y]", "protein stability index": 2.27}
{"variant": "VGAAGSARKELLGDRPRWQRLLGE", "note": "[Q9K]", "protein stability index": 3.05}
{"variant": "VGAAGSARSELLGDRPRWQRLLGE", "note": "[Q9S]", "protein stability index": 3.46}
{"variant": "VGAAGSARVELLGDRPRWQRLLGE", "note": "[Q9V]", "protein stability index": 3.14}
{"variant": "VGAAGSARGELLGDRPRWQRLLGE", "note": "[Q9G]", "protein stability index": 3.41}
{"variant": "VGAAGSARPELLGDRPRWQRLLGE", "note": "[Q9P]", "protein stability index": 3.29}
{"variant": "VGAAGSARMELLGDRPRWQRLLGE", "note": "[Q9M]", "protein stability index": 3}
{"variant": "VGAAGSARHELLGDRPRWQRLLGE", "note": "[Q9H]", "protein stability index": 3.38}
{"variant": "VGAAGSAREELLGDRPRWQRLLGE", "note": "[Q9E]", "protein stability index": 2.11}
{"variant": "VGAAGSARDELLGDRPRWQRLLGE", "note": "[Q9D]", "protein stability index": 3.7}
{"variant": "VGAAGSARNELLGDRPRWQRLLGE", "note": "[Q9N]", "protein stability index": 2.74}
{"variant": "VGAAGSARQELLGDRGRWQRLLGE", "note": "[P16G]", "protein stability index": 2.98}
{"variant": "VGAAGSARQELLGDRYRWQRLLGE", "note": "[P16Y]", "protein stability index": 3.28}
{"variant": "VGAAGSARQELLGDRWRWQRLLGE", "note": "[P16W]", "protein stability index": 1.84}
{"variant": "VGAAGSARQELLGDRIRWQRLLGE", "note": "[P16I]", "protein stability index": 2.92}
{"variant": "VGAAGSARQELLGDRCRWQRLLGE", "note": "[P16C]", "protein stability index": 3.24}
{"variant": "VGAAGSARQELLGDRRRWQRLLGE", "note": "[P16R]", "protein stability index": 3.31}
{"variant": "VGAAGSARQELLGDRARWQRLLGE", "note": "[P16A]", "protein stability index": 3.68}
{"variant": "VGAAGSARQELLGDRSRWQRLLGE", "note": "[P16S]", "protein stability index": 3.16}
{"variant": "VGAAGSARQELLGDRKRWQRLLGE", "note": "[P16K]", "protein stability index": 3.68}
{"variant": "VGAAGSARQELLGDRMRWQRLLGE", "note": "[P16M]", "protein stability index": 2.94}
{"variant": "VGAAGSARQELLGDRERWQRLLGE", "note": "[P16E]", "protein stability index": 4.72}
{"variant": "VGAAGSARQELLGDRNRWQRLLGE", "note": "[P16N]", "protein stability index": 3.88}
{"variant": "VGAAGSARQELLGDRHRWQRLLGE", "note": "[P16H]", "protein stability index": 2.83}
{"variant": "VGAAGSARQELLGDRLRWQRLLGE", "note": "[P16L]", "protein stability index": 3.12}
{"variant": "VGAAGSARQELLGDRDRWQRLLGE", "note": "[P16D]", "protein stability index": 3.1}
{"variant": "VGAAGSARQELLGDRQRWQRLLGE", "note": "[P16Q]", "protein stability index": 2.65}
{"variant": "VGAAGSARQELLGDRVRWQRLLGE", "note": "[P16V]", "protein stability index": 3.35}
{"variant": "VGAAGSARQELLGDDPRWQRLLGE", "note": "[R15D]", "protein stability index": 4.12}
{"variant": "VGAAGSARQELLGDKPRWQRLLGE", "note": "[R15K]", "protein stability index": 3.06}
{"variant": "VGAAGSARQELLGDHPRWQRLLGE", "note": "[R15H]", "protein stability index": 4.05}
{"variant": "VGAAGSARQELLGDWPRWQRLLGE", "note": "[R15W]", "protein stability index": 3.1}
{"variant": "VGAAGSARQELLGDLPRWQRLLGE", "note": "[R15L]", "protein stability index": 2.51}
{"variant": "VGAAGSARQELLGDIPRWQRLLGE", "note": "[R15I]", "protein stability index": 2.73}
{"variant": "VGAAGSARQELLGDYPRWQRLLGE", "note": "[R15Y]", "protein stability index": 2.66}
{"variant": "VGAAGSARQELLGDSPRWQRLLGE", "note": "[R15S]", "protein stability index": 4.15}
{"variant": "VGAAGSARQELLGDMPRWQRLLGE", "note": "[R15M]", "protein stability index": 3.05}
{"variant": "VGAAGSARQELLGDNPRWQRLLGE", "note": "[R15N]", "protein stability index": 3.6}
{"variant": "VGAAGSARQELLGDVPRWQRLLGE", "note": "[R15V]", "protein stability index": 3.41}
{"variant": "VGAAGSARQELLGDCPRWQRLLGE", "note": "[R15C]", "protein stability index": 3.11}
{"variant": "VGAAGSARQELLGDTPRWQRLLGE", "note": "[R15T]", "protein stability index": 3.68}
{"variant": "VGAAGSARQELLGDFPRWQRLLGE", "note": "[R15F]", "protein stability index": 2.75}
{"variant": "VGAAGSARQELLGDPPRWQRLLGE", "note": "[R15P]", "protein stability index": 3.11}
{"variant": "VGAAGSARQELLGDGPRWQRLLGE", "note": "[R15G]", "protein stability index": 3.75}
{"variant": "VGAAGSARQELLGDEPRWQRLLGE", "note": "[R15E]", "protein stability index": 3.27}
{"variant": "VGAAGSARQELLGDQPRWQRLLGE", "note": "[R15Q]", "protein stability index": 3.96}
{"variant": "VGAAGSAGQELLGDRPRWQRLLGE", "note": "[R8G]", "protein stability index": 3.68}
{"variant": "VGAAGSATQELLGDRPRWQRLLGE", "note": "[R8T]", "protein stability index": 2.76}
{"variant": "VGAAGSADQELLGDRPRWQRLLGE", "note": "[R8D]", "protein stability index": 3.53}
{"variant": "VGAAGSAQQELLGDRPRWQRLLGE", "note": "[R8Q]", "protein stability index": 3.37}
{"variant": "VGAAGSAVQELLGDRPRWQRLLGE", "note": "[R8V]", "protein stability index": 3.32}
